Results taken from patent publication US20240317872A1.

How the values were obtained:
human 4-1BB (human) [1] = biological target: human 4-1BB (human) (UniProt Q07011); experiment: cell-based or functional assay
human 4-1BB (human) [2] = biological target: human 4-1BB (human) (UniProt Q07011); experiment: flow cytometry on CHO-K1 cells expressing 4-1BB

human 4-1BB (human), sequence (Q07011 24-255): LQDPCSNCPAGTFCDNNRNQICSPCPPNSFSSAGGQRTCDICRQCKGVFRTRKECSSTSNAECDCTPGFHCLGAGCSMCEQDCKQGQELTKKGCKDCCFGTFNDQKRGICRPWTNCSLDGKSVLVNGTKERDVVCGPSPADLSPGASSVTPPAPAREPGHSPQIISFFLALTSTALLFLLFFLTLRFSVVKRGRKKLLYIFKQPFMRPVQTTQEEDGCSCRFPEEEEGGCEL

## WBP342-BMK3.hIgG4 (antibody)
Human 4-1BB (human) [1]
  reporter gene assay (NFkB luciferase), EC50: 0.33 nM
  reporter gene assay (NFkB luciferase), Top (RLU): 1.09e+06 RLU
Human 4-1BB (human) [2]
  EC50: 0.123 nM
  Top (MFI): 1120 MFI
